Groups on a side chain read outwards from the residue.
Target: T1, H3(E5)2 branched peptide (not fully specified)
T1 chain: Ac-EEEEEGGK([Gly-Gly-Kme3‑VGGTAPAS])GGEEEEE-NH2
Assay: NMR titration

- Kd: 360 µM
B1: PSIP1 (LEDGF) PWWP domain PWWP (protein)
chain: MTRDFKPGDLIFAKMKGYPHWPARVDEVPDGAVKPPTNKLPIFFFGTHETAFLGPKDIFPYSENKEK

From paper PMC7662849 (2020)
